± gives the standard deviation.

The text below walks through data of the supplement of paper PMC10567573.

The data set can be described thus: protein stability index of a GFP-peptide fusion (GPS, HEK-293T) (PSI 1-6); higher = more stable.
The mark [1] stands for this setting: treatment: DMSO, c terminus: a fixed tail appended.
The mark [2] stands for this setting: treatment: MLN4924 1 uM, 8 h, c terminus: a fixed tail appended.
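Also: 24-mer peptide tiles fused after GFP, lentivirally expressed, FACS-sorted into six equal bins by GFP/DsRed ratio, decoded by Illumina sequencing, PSI is the read-weighted mean bin number.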

As for VTSIPSVSDSLTWREFHYIQSKLG [STEAP1], the protein stability index runs as follows: under setting [1], 2.66 ± 0.24; under setting [2], 2.69 ± 0.18.

Consider VVDIFQTVKMLRTQRPAMVQTEDQ [PTPRD], for which the protein stability index reads like this: under setting [1], 3.23 ± 0.32; under setting [2], 3.06 ± 0.27.

In turn, VVLGNIIKKKGWRRSSLVITTKIF [KCNAB2] yielded a protein stability index under setting [1] of 2.86 ± 0.34 and a protein stability index under setting [2] of 2.74 ± 0.55.

Take VVLTFITPMLNPLIYTLKNAEMKS [OR4A15]: the protein stability index was 3.22 ± 0.073 under setting [1] and 2.99 ± 0.63 under setting [2].

As to WAEIAKMLPGRTDNAVKNHWNSTI [MYBL2], the protein stability index is 2.18 ± 0.28 under setting [1] and 2.16 ± 0.18 under setting [2].

The sequence WCLRVNPKGLDDESKDYLSLYLLL [SPOPL] gave a protein stability index under setting [1] of 2.96 ± 0.41 and a protein stability index under setting [2] of 3.08 ± 0.69.

In the case of WEWSPAGLQSYQQALLRISLDKVQ [SERTAD3], the protein stability index is 2.48 ± 0.58 under setting [1] and 2.49 ± 0.69 under setting [2].

WHDVQVSSAYVKTSEKLGEWNEKV [TPD52L2]: the protein stability index turned out to be 3.64 ± 0.26 under setting [1] and 3.8 ± 0.24 under setting [2].

As for WKYFKGNFYYFSLIPKTWYSAEQF [CD207], the protein stability index is, setting by setting: under setting [1], 3.12 ± 0.47; under setting [2], 2.78 ± 0.71.

For WNDAPCDKTFLFICKRPYVPSEP [CD207], the protein stability index by setting is: (treatment: DMSO, c terminus: native) 1.99 ± 0.96; (treatment: MLN4924 1 uM, 8 h, c terminus: native) 2.13 ± 0.13.

On to WPLRGKREAMLEMLLQHQICKEVQ [SPAG8], for which the protein stability index runs as follows: under setting [1], 2.17 ± 0.4; under setting [2], 2.11 ± 0.24.

In the case of WQYLSGGKVKLQQNPGKFDELDMS [TBC1D10A], the protein stability index by setting is: under setting [1], 3.16 ± 0.32; under setting [2], 3.35 ± 0.26.

In the case of YALDMQQSNLEPLSPMTASSFLSF [FEM1A], the protein stability index under setting [1] came out at 2.6 ± 0.23 and the protein stability index under setting [2] worked out at 2.47 ± 0.085.

YCRLKKCLKVGMRREAVQRGRMPP [NR2F2] came in with a protein stability index under setting [1] of 2.84 ± 0.39 and a protein stability index under setting [2] of 2.77 ± 0.26.

Consider YDSQPQDVLGIRQLERPLPLTSVC [TRAF3IP2], for which the protein stability index came to 3.68 ± 0.065 under setting [1] and 3.74 ± 0.23 under setting [2].

For the sequence YENFLEDKALMIAMEYAPGGTLAE [NEK8], the protein stability index amounted to 3.54 ± 0.13 under setting [1] and 3.98 ± 0.2 under setting [2].

Turning to YERLARILLQEIPIRSISLRSCYF [FBXO39], the protein stability index is, setting by setting: under setting [1], 2.92 ± 0.28; under setting [2], 2.56 ± 0.26.

YGSCYTVDGVWTAQRPGITHGVGL [SCNN1D] came in with a protein stability index under setting [1] of 2.69 ± 0.5 and a protein stability index under setting [2] of 2.2 ± 0.15.

Regarding YIMAFDIKSEDMLKILKPSIPLER [FBXO33], the protein stability index was found to be 2.34 ± 0.44 under setting [1] and 2.67 ± 0.4 under setting [2].

As to YISHRELGDCMRTLGYMPTEMELL [CABP4], the protein stability index by setting is: under setting [1], 2.27 ± 0.34; under setting [2], 2.48 ± 0.43.

YKKGRMMKDISNLEENDETRFILS [SLC6A17]: the protein stability index by setting is: under setting [1], 3.35 ± 0.29; under setting [2], 3.09 ± 0.39.

For YLDKAPPPGLPAETIKDLMRQFLR [CDK4], the protein stability index runs as follows: under setting [1], 4.45 ± 0.2; under setting [2], 4.23 ± 0.39.

For YLGSLQYRVWKKMLASVESVPFSF [TRIM35], the protein stability index is, setting by setting: under setting [1], 2.93 ± 0.63; under setting [2], 2.33 ± 0.48.

Take YNNRGQIKYFRVDFYEAMDDYTSA [TTC32]: the protein stability index under setting [1] amounted to 2.15 ± 0.29 and the protein stability index under setting [2] was found to be 2.35 ± 0.24.

In the case of YPEQSKGFHKAGSMLPPVNFSIVP [SPATS1], the protein stability index is, setting by setting: under setting [1], 2.65 ± 0.5; under setting [2], 3.06 ± 0.69.

Regarding YQDMIYAVGGRDDTTELSSAERYN [KLHL20], the protein stability index under setting [1] came out at 2.91 ± 0.66 and the protein stability index under setting [2] came out at 3.52 ± 0.51.

In the case of YQELLNVKMALDIEIATYRKLLEG [PRPH], the protein stability index by setting is: under setting [1], 2.22 ± 0.22; under setting [2], 2.43 ± 0.081.

For the sequence YRLLKCAPRGKNGFTPLHMAVDKD [FEM1A], the protein stability index under setting [1] was found to be 2.84 ± 0.22 and the protein stability index under setting [2] came out at 2.96 ± 0.14.

With YRQDDPSYRSFHSGGYGQDALGMD [CTNNB1], the protein stability index runs as follows: under setting [1], 3.89 ± 0.35; under setting [2], 4.03 ± 0.14.

Turning to YSHLAYNNYRLGGNPSTNSRVTAS [SMARCE1], the protein stability index under setting [1] stood at 3.3 ± 0.34 and the protein stability index under setting [2] is 3.35 ± 0.18.

As to YSIGRSVEGRHLYVLEFSDHPGIH [CPN1], the protein stability index is 2.07 ± 0.23 under setting [1] and 2.07 ± 0.12 under setting [2].

Regarding YSLLPQSTAPGLFLVSTHTGEVRT [PCDHGC5], the protein stability index stood at 3.07 ± 0.14 under setting [1] and 3.07 ± 0.29 under setting [2].

Take YSQGRLSEAEEALYLIAKRNRKLK [SLC22A15]: the protein stability index is, setting by setting: under setting [1], 2.81 ± 0.2; under setting [2], 3 ± 0.063.

YVRMVFLALYVLFLADEEFDVVVC [ALG2]: the protein stability index is, setting by setting: under setting [1], 3.1 ± 0.71; under setting [2], 2.93 ± 1.

With YWPLEKDSRIRFGFLTVTNLGVEN [PTPN9], the protein stability index amounted to 2.47 ± 0.36 under setting [1] and 2.43 ± 0.4 under setting [2].
